84 variants from the RNAGym collection of RNA variant scans (doi:10.1021/acssynbio.7b00057) can be followed below.

B1: Pistol ribozyme (parent)
chain: GGGUCGUUGUUCCAUAAUCGCGUGGAUAUGGCACGCAAGUUUCUACCGGGCACCGUAAAUGUCCGACUGGAGCCGUUCGGGCGGCUAUAAACAGACCUCAGGCCCGAAGCGUGGCGGCACCUGCCGCCGGUGGUAAAAAAGAUCGGAAGAGCACACGUCU

Variants of B1 are the subject of this series. In words: aptazyme ON/OFF ratio, guanine; higher = stronger switching; co-transcriptional cleavage with and without guanine.
In the case of U7C U8G U10G U11A C13A, the “aptazyme ON/OFF ratio” value came to 1.18. On to U7C U8G U10A C12G C13U, for which the “aptazyme ON/OFF ratio” value was 1.18.

With U7C U8G U10A C12G C13A, the “aptazyme ON/OFF ratio” value came out at 1.13.

As to U7C U8G U10A C12G C13G, the “aptazyme ON/OFF ratio” value came to 1.1. For the variant U7C U8G U11G C12A, the “aptazyme ON/OFF ratio” value worked out at 1.29.

Regarding U7C U8G U11G C12G, the “aptazyme ON/OFF ratio” value was 1.1. As for U7C U8G U11G C12U, the “aptazyme ON/OFF ratio” value is 1.19. To U7C U8G U10C U11A C12A belongs 2.52; to U7C U8G U10C U11A C12G, 1.2. For U7C U8G U10C U11A C12U, the “aptazyme ON/OFF ratio” value was found to be 3.58. For the variant U7C U8G U10A U11C C12G, the “aptazyme ON/OFF ratio” value stood at 1.18. U7C U8G U10A U11C C12U: the “aptazyme ON/OFF ratio” value was 1.04. Regarding U7C U8G U10A U11C C12A, the “aptazyme ON/OFF ratio” value worked out at 1.13.

Consider U7C U8G G9U U11C C12U C13G, for which the “aptazyme ON/OFF ratio” value amounted to 1.07. Regarding U7C U8G G9U U11C C12U C13U, the “aptazyme ON/OFF ratio” value was determined as 1.32.

U7C U8G G9U U11C C12U C13A: the “aptazyme ON/OFF ratio” value stood at 1.38. Consider U7C U8G U10C U11C C13U, for which the “aptazyme ON/OFF ratio” value turned out to be 1.11. On to U7C U8G U10C U11C C13G, for which the “aptazyme ON/OFF ratio” value was found to be 1.09. For U7C U8G U10C U11C C13A, the “aptazyme ON/OFF ratio” value amounted to 1.03.

For the variant U7C U8G G9U U11C C12U, the “aptazyme ON/OFF ratio” value was 1.21.

With U7C U8G G9U U11C C12G, the “aptazyme ON/OFF ratio” value amounted to 1.32.

In the case of U7C U8G G9U U11C C12A, the “aptazyme ON/OFF ratio” value was determined as 1.41. As for U7C U8G G9U U10G U11G, the “aptazyme ON/OFF ratio” value turned out to be 1.18. In the case of U7C U8G G9U U10G U11C, the “aptazyme ON/OFF ratio” value is 1.07. Turning to U7C U8G G9U U10G U11A C12U C13G, the “aptazyme ON/OFF ratio” value amounted to 1.17. As for U7C U8G G9U U10G U11A C12U C13U, the “aptazyme ON/OFF ratio” value turned out to be 1.26. The result for U7C U8G G9U U10G U11A C12U C13A reads 1.24; that for U7C U8G U10G U11C C12A C13A, 1.19; that for U7C U8G U10G U11C C12A C13G, 1.1. With U7C U8G U10G U11C C12A C13U, the “aptazyme ON/OFF ratio” value came to 1.42. For the variant U7C U8G U11C C12G C13G, the “aptazyme ON/OFF ratio” value is 1.17. Consider U7C U8G U11C C12G C13A, for which the “aptazyme ON/OFF ratio” value came to 1.15.

With U7C U8G U11C C12G C13U, the “aptazyme ON/OFF ratio” value came out at 1.17. For the variant U7C U8G U10C C12G C13G, the “aptazyme ON/OFF ratio” value amounted to 1.13.

As for U7C U8G U10C C12G C13A, the “aptazyme ON/OFF ratio” value stood at 1.11. Regarding U7C U8G U10C C12G C13U, the “aptazyme ON/OFF ratio” value was determined as 1.35. Take U7C U8G U11A C12G C13A: the “aptazyme ON/OFF ratio” value turned out to be 1.11. Turning to U7C U8G U11A C12G C13G, the “aptazyme ON/OFF ratio” value came out at 1.11. As for U7C U8G U11A C12G C13U, the “aptazyme ON/OFF ratio” value was 1.09. For the variant U7C U8G G9U U10G U11G C12G C13U, the “aptazyme ON/OFF ratio” value was 1.25.

Turning to U7C U8G G9U U10G U11G C12G C13G, the “aptazyme ON/OFF ratio” value was 1.24. Turning to U7C U8G G9U U10G U11G C12G C13A, the “aptazyme ON/OFF ratio” value was determined as 1.15.

As for U7C U8G U10G U11G C12U C13A, the “aptazyme ON/OFF ratio” value stood at 1.25. In the case of U7C U8G U10G U11G C12U C13U, the “aptazyme ON/OFF ratio” value was determined as 1.4. In the case of U7C U8G U10G U11G C12U C13G, the “aptazyme ON/OFF ratio” value came out at 1.26. With U7C U10A C12A, the “aptazyme ON/OFF ratio” value was 1.22. U7C U8G U11A C12U: the “aptazyme ON/OFF ratio” value is 1.15.

Regarding U7C U8G U11A C12G, the “aptazyme ON/OFF ratio” value amounted to 1.1. For the variant U7C U8G U11A C12A, the “aptazyme ON/OFF ratio” value came out at 1.14. For the variant U7C U8G U10G U11G C12G, the “aptazyme ON/OFF ratio” value stood at 1.21. For the variant U7C U8G U10G U11G C12U, the “aptazyme ON/OFF ratio” value was 1.21.

For U7C U8G U10G U11G C12A, the “aptazyme ON/OFF ratio” value was determined as 1.28. Take U7C U8G G9U U11A C13U: the “aptazyme ON/OFF ratio” value worked out at 1.28. With U7C U8G G9U U11A C13G, the “aptazyme ON/OFF ratio” value came out at 1.09.

Turning to U7C U8G G9U U11A C13A, the “aptazyme ON/OFF ratio” value worked out at 1.28. U7C U8G U11C C12A C13U: the “aptazyme ON/OFF ratio” value amounted to 1.34. Regarding U7C U8G U11C C12A C13A, the “aptazyme ON/OFF ratio” value came to 1.28. With U7C U8G U11C C12A C13G, the “aptazyme ON/OFF ratio” value came to 1.15. As to U7C U8G U11G C12U C13A, the “aptazyme ON/OFF ratio” value was found to be 1.11. As for U7C U8G U11G C12U C13G, the “aptazyme ON/OFF ratio” value came to 1.07. With U7C U8G U11G C12U C13U, the “aptazyme ON/OFF ratio” value turned out to be 1.17.

U7C U8G U10C U11G C12G C13U: the “aptazyme ON/OFF ratio” value stood at 1.11. U7C U8G U10C U11G C12G C13G: the “aptazyme ON/OFF ratio” value was 1.09.

As to U7C U8G U10C U11G C12G C13A, the “aptazyme ON/OFF ratio” value was 1.09.

Consider U7C U8G U10C U11G C12U C13G, for which the “aptazyme ON/OFF ratio” value came to 1.17. In the case of U7C U8G U10C U11G C12U C13U, the “aptazyme ON/OFF ratio” value amounted to 1.25. For the variant U7C U8G U10C U11G C12U C13A, the “aptazyme ON/OFF ratio” value was 1.24. As to U7C U10A C12A C13A, the “aptazyme ON/OFF ratio” value was 1.16. U7C U8G U10A C12A: the “aptazyme ON/OFF ratio” value amounted to 1.41. U7C U8G U10A C12G: the “aptazyme ON/OFF ratio” value turned out to be 1.18.

With U7C U8G U10A C12U, the “aptazyme ON/OFF ratio” value is 2.01. In the case of U7C U8G U10A U11C C12G C13U, the “aptazyme ON/OFF ratio” value was determined as 1.24. To U7C U8G U10A U11C C12G C13A belongs 1.14. The result for U7C U8G U10A U11C C12G C13G reads 1.22; that for U7C U8G G9U U10G U11G C13G, 1.06.

Take U7C U8G G9U U10G U11G C13A: the “aptazyme ON/OFF ratio” value was 1.23. Turning to U7C U8G G9U U10G U11G C13U, the “aptazyme ON/OFF ratio” value is 1.21. The result for U7C U8G U10G C12G C13U reads 1.29; that for U7C U8G U10G C12G C13A, 1.11; that for U7C U8G U10G C12G C13G, 1.14. Consider U7C U8G G9U U10G U11C C13A, for which the “aptazyme ON/OFF ratio” value was 1.17. Take U7C U8G G9U U10G U11C C13G: the “aptazyme ON/OFF ratio” value came to 1.14. Take U7C U8G G9U U10G U11C C13U: the “aptazyme ON/OFF ratio” value was 1.16.

Regarding U7C U8G U10A C12A C13G, the “aptazyme ON/OFF ratio” value came to 1.08.
